Results on seven molecules are retold here after US20250002581A1 (VERSITECH, published 2025).

The target in test [1] is T1, Δ42PD1 (human).
T1 construct: whole, on cells
As to the kind of experiment: flow cytometry on 293T-Δ42PD1 cells, antibody 10 ng/ml, second anti-human Fc antibody. The text has this:
Human IgG1 isotype was used as a negative control.
To exploit the therapeutic activities of CH101 variants, we made various modifications in the constant regions of the chimeric version or humanized version of CH101, thus resulting a serial of CH101 humanized antibodies, including CH101-huIgG1(N297A), CH101-huIgG1(L/S), CH101-huIgG4, huCH101-IgG1, huCH101-IgG4, CH101-huIgG1 (chimeric CH101). The original CH101 (parental, fully murine) was included as the positive control for these humanized versions. […] All humanized antibodies could recognize Δ42PD1 expressed on the cell surface but with different specificity (FIGS. 3A-3I). The detailed statistical analysis elucidated the activity of versions of humanized antibodies in interacting with Δ42PD1 at different specificity and sensitivity (Table 1). […] Due to the limited expression of chimeric versions of CH101 with Fc engineering, including CH101-huIgG1(N297A), CH101-huIgG1(L/S) and CH101-huIgG4, the amount of these antibody was insufficient for fluorescence labelling.
A general note: Flow cytometry measures light scatter and fluorescence of single cells or particles in a stream.

Test [2] has as its target T1, Δ42PD1. As to the kind of experiment: flow cytometry on 293T-Δ42PD1 cells, antibody 10 ng/ml; average ± deviation.
For test [3], the target named is T2, PD-1-GFP (UniProt Q15116 25-288).
T2 construct: whole, on cells; Expressed from a PCDH plasmid in RPMI8866 B cells by electroporation; also called PD-1 expressed on human B cells; not shown: GFP
Description: flow cytometry on RPMI8866 B cells transfected with PD-1-GFP. On the procedure: To test the specificity of anti-Δ42PD1 antibody CH34 as compared with the anti-PD1 antibody (EH12.2H7), RPMI8866 B cells are transfected with a plasmid PCDH expressing Δ42PD-1-GFP, PD-1-GFP or GFP along by Neon electroporation system. Untransfected RPMI8866 B cells are included as controls. Two days after the transfection, the transfection efficiency is determined by flow cytometry analysis on GFP (upper panel). The specificity of anti-Δ42PD1 antibody CH34 and anti-PD1 antibody EH12.2H7 is measured by analysis on PD-1 and Δ42PD1 expression (lower panel).

For test [4], the target named is T3, PD1 (human, UniProt Q15116 25-288).
T3 construct: whole, on cells; also called CD279
As to the kind of experiment: flow cytometry on 293T cells transfected with a PCDH plasmid expressing PD-1. The procedure: Untransfected cells are included as controls. Two days after the transfection, the specificity of anti-Δ42PD1 antibody CH34 and anti-PD1 antibody EH12.2H7 is measured by analysis on PD-1 and Δ42PD1 expression.

T3 sequence (Q15116 25-288): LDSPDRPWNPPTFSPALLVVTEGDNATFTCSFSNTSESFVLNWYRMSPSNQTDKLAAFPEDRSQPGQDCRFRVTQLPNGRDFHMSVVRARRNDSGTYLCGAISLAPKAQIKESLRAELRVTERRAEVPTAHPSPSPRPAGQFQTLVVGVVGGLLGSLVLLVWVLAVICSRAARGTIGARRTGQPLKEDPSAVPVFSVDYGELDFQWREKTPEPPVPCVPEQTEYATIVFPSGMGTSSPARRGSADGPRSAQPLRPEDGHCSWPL
T2 sequence (Q15116 25-288): as above

B1: CH101-huIgG1(N297A) (antibody)
heavy: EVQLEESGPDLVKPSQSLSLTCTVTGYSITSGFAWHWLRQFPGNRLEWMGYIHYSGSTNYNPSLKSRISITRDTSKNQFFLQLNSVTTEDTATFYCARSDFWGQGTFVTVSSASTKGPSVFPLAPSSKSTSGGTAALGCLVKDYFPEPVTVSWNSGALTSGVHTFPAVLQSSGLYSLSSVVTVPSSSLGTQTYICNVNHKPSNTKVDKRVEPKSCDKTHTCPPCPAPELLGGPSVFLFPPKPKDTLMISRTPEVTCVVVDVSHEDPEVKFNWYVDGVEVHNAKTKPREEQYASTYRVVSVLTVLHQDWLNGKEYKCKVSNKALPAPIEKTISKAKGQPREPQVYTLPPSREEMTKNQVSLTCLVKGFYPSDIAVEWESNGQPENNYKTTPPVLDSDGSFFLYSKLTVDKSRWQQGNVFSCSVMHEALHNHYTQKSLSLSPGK
light: DVVMTQTPLNLSVTFGQPVSISCTSSQSLLDRDGETFMNWLFQRPGQSPKRLIYLVSKLDFGVPDRFTGSGSGTDFTLKISRVEAEDLGIYYCWQGTHFPLTFGGGTKLEIKRTVAAPSVFIFPPSDEQLKSGTASVVCLLNNFYPREAKVQWKVDNALQSGNSQESVTEQDSKDSTYSLSSTLTLSKADYEKHKVYACEVTHQGLSSPVTKSFNRGEC
notes: Detected with a second anti-human Fc antibody
On to B1, for which the “293T-Δ42PD1 (%)” value in test [1] was 68.3%.

B2: CH101-huIgG1(L/S) (antibody)
heavy: EVQLEESGPDLVKPSQSLSLTCTVTGYSITSGFAWHWLRQFPGNRLEWMGYIHYSGSTNYNPSLKSRISITRDTSKNQFFLQLNSVTTEDTATFYCARSDFWGQGTFVTVSS
light: DVVMTQTPLNLSVTFGQPVSISCTSSQSLLDRDGETFMNWLFQRPGQSPKRLIYLVSKLDFGVPDRFTGSGSGTDFTLKISRVEAEDLGIYYCWQGTHFPLTFGGGTKLEIKRTVAAPSVFIFPPSDEQLKSGTASVVCLLNNFYPREAKVQWKVDNALQSGNSQESVTEQDSKDSTYSLSSTLTLSKADYEKHKVYACEVTHQGLSSPVTKSFNRGEC
notes: Detected with a second anti-human Fc antibody; not shown: human IgG1 constant region with a modification printed only as '(L/S)'
Regarding B2, the “293T-Δ42PD1 (%)” value in test [1] is 65.7%.

B3: CH101-huIgG4 (antibody)
heavy: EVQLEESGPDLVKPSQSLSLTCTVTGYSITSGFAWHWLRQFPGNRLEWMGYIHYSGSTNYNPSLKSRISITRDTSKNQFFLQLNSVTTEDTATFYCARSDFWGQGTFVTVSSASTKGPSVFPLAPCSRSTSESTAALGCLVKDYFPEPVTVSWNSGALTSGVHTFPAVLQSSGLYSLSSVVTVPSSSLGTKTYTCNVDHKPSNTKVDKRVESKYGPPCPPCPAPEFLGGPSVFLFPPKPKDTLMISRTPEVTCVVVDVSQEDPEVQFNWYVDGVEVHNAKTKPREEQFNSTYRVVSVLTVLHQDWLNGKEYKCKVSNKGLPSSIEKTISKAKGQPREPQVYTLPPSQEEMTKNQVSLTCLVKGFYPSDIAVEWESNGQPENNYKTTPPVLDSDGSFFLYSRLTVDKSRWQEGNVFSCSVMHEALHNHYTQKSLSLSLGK
light: DVVMTQTPLNLSVTFGQPVSISCTSSQSLLDRDGETFMNWLFQRPGQSPKRLIYLVSKLDFGVPDRFTGSGSGTDFTLKISRVEAEDLGIYYCWQGTHFPLTFGGGTKLEIKRTVAAPSVFIFPPSDEQLKSGTASVVCLLNNFYPREAKVQWKVDNALQSGNSQESVTEQDSKDSTYSLSSTLTLSKADYEKHKVYACEVTHQGLSSPVTKSFNRGEC
notes: Chimeric CH101 on human IgG4; Detected with a second anti-human Fc antibody; also called CH101-IgG4
For B3, the “293T-Δ42PD1 (%)” value in test [1] came to 62.8%.

B4: CH101-huIgG1 (antibody)
heavy: not shown
light: DVVMTQTPLNLSVTFGQPVSISCTSSQSLLDRDGETFMNWLFQRPGQSPKRLIYLVSKLDFGVPDRFTGSGSGTDFTLKISRVEAEDLGIYYCWQGTHFPLTFGGGTKLEIKRTVAAPSVFIFPPSDEQLKSGTASVVCLLNNFYPREAKVQWKVDNALQSGNSQESVTEQDSKDSTYSLSSTLTLSKADYEKHKVYACEVTHQGLSSPVTKSFNRGEC
notes: also called chimeric CH101; CH101-IgG1
In the case of B4, the “293T-Δ42PD1 (%)” value in test [2] came out at 70.1%.

B5: hufrCH101-IgG1 (antibody)
heavy: not shown
light: DVVMTQSPLSLPVTLGQPASISCTSSQSLLDRDGETFMNWFQQRPGQSPRRLIYLVSKLDFGVPDRFSGSGSGTDFTLKISRVEAEDVGVYYCWQGTHFPLTFGGGTKVEIKRTVAAPSVFIFPPSDEQLKSGTASVVCLLNNFYPREAKVQWKVDNALQSGNSQESVTEQDSKDSTYSLSSTLTLSKADYEKHKVYACEVTHQGLSSPVTKSFNRGEC
notes: 97.0% humanized CH101 (641/661) by CDR grafting, human IgG1; also called huCH101-IgG1; huCH101
For the molecule B5, the “293T-Δ42PD1 (%)” value in test [2] was 45.5%.

B6: anti-Δ42PD1 antibody CH34 (antibody, mouse IgG2b, kappa, V domains shown)
VH: EVKLVESGGGLVQPGGSRKLSCAASGFTFSDYGMAWVRQAPGKGPEWVAFISSLAYTIYYADTVTGRFTISRENAKNTLYLEMSSLRSEDTAMYYCARGGAGFAYWGQGTLVTVSA
VL: DIQMTQSSSYLSVSLGGRVTITCKASDHINNWLAWYQQKPGNAPRLLISGATSLETGVPSRFSGSGSGKDYTLSITSLQTEDVATYYCQQYWSTPWTFGGGTKLEIKR
notes: Murine monoclonal antibody (msIgG2b isotype control used beside it); both are entered as this one molecule; also called murine CH34; mouse CH34 mAb
Consider B6, for which the binding result in test [3] and in test [4] was “no binding” each time.

B7: murine CH101 (antibody, V domains shown)
VH: EVQLEESGPDLVKPSQSLSLTCTVTGYSITSGFAWHWLRQFPGNRLEWMGYIHYSGSTNYNPSLKSRISITRDTSKNQFFLQLNSVTTEDTATFYCARSDFWGQGTFVTVSS
VL: DVVMTQTPLNLSVTFGQPVSISCTSSQSLLDRDGETFMNWLFQRPGQSPKRLIYLVSKLDFGVPDRFTGSGSGTDFTLKISRVEAEDLGIYYCWQGTHFPLTFGGGTKLEIK
notes: Hybridoma-derived, fully murine monoclonal antibody; a mouse IgG1 control was used beside it in vivo; also called parental murine CH101; original CH101 (parental, fully murine)
For B7, in test [2], the “293T-Δ42PD1 (%)” value is 59.2%.
